Laboratory results: patent US20250026841A1 (AP BIOSCIENCES, published 2025)
Where two headings read alike, the source gives them in different places.

T1: CD73, cell membrane-bound (expressed by MDA-MB-231 cells) (human, UniProt P21589 27-549)
T1 construct: whole, on cells; also called CD73-expressing MDA-MB-231 breast cancer cells
T1 sequence (looked up): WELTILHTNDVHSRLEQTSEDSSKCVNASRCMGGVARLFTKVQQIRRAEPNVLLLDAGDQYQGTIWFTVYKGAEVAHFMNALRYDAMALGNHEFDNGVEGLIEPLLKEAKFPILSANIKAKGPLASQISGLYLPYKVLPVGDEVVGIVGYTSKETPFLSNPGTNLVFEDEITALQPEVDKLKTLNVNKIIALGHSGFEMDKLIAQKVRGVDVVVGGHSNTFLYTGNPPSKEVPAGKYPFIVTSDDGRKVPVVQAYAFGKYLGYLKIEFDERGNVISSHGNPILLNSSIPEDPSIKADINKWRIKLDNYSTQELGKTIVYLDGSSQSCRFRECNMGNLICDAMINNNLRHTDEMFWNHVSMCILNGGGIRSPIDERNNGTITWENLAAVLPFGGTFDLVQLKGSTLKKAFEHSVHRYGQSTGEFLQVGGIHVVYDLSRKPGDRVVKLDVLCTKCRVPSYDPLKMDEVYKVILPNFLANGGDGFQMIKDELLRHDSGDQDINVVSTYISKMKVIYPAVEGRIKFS

T2: CD73 (antigen of the CD73 ELISA) (UniProt P21589 27-547, limits assumed)
T2 construct: the ELISA antigen is not described
T2 sequence (looked up): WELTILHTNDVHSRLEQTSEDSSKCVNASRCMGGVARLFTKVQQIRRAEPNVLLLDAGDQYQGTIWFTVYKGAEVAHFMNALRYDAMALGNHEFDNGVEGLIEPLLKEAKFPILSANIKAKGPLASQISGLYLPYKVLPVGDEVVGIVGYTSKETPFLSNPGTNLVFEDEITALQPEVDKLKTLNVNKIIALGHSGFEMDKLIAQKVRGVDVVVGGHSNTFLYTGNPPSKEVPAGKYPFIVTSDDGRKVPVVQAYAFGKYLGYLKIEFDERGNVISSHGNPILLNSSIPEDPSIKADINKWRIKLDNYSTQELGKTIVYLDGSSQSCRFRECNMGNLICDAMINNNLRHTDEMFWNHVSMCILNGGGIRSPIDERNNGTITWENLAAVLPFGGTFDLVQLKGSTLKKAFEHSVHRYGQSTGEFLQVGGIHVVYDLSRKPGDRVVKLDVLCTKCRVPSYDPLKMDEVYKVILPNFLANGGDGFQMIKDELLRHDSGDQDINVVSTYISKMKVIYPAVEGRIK

T3: his-tagged human CD73 (AcroBiosystems, Cat. No. CD3-H52H7) (human, UniProt P21589 27-547)
T3 construct: Bought protein; also called hCD73-His; human CD73 antigen; not shown: His tag
T3 sequence (looked up): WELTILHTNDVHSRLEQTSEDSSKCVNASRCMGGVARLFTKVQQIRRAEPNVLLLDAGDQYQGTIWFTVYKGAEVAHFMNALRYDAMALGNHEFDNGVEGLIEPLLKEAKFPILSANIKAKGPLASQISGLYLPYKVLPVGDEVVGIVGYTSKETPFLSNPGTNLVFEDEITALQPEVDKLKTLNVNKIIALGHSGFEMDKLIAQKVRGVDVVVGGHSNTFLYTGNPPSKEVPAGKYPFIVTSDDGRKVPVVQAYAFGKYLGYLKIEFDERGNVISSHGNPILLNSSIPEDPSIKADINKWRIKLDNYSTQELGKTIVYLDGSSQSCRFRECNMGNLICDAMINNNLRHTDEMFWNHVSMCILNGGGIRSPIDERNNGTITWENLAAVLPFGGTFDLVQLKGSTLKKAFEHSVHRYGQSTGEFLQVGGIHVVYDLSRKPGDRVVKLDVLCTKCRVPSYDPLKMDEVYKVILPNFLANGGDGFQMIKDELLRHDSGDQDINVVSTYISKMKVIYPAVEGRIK

T4: soluble CD73 secreted by MDA-MB-231 cells (human, UniProt P21589 27-549, limits assumed)
T4 sequence (looked up): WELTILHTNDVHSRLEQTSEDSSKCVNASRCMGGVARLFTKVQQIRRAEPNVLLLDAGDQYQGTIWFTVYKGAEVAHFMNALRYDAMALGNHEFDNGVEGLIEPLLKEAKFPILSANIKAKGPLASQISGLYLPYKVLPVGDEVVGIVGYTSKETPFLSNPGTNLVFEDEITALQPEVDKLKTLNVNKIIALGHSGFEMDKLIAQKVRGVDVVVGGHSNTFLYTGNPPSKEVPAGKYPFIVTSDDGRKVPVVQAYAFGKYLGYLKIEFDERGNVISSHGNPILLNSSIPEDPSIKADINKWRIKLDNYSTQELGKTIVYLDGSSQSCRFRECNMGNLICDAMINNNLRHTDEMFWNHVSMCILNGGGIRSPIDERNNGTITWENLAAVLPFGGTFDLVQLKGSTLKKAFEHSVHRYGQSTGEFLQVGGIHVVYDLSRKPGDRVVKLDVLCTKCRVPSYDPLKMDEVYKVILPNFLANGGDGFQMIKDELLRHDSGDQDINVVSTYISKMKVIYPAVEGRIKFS


Legend:
[1] = target: T1, CD73, cell membrane-bound (expressed by …); experiment: flow cytometry, antibody 4 µg/ml on MDA-MB-231 cells, A488 anti-human IgG
Procedure: As illustrated in FIG. 15 the binding activity of anti-CD73 antibody leads was assessed by flow cytometer. MDA-MB-231 cells (1×10^5 cells) were surface stained with anti-CD73 antibody (4 μg/ml) for 30 minutes, then incubated with A488-conjugated anti-human IgG secondary antibody for 15 minutes on ice. Cells were analyzed by flow cytometer, and A488 fluorescence intensity was shown by histograms (left) and number (right table). As illustrated in FIG. 16 the blockade of CD73 enzymatic activity by anti-CD73 antibody leads was assessed. The enzymatic activity of CD73 expressed by MDA-MB-231 on the cell surface was blocked by anti-CD73 antibody leads.

[2] = target: T2, CD73 (antigen of the CD73 ELISA); experiment: phage ELISA on coated CD73-flag-HIS; X-flag-HIS control bars not seen above the axis
[3] = target: T3, his-tagged human CD73 (AcroBiosystems, …); experiment: BLI (Octet), antibody on AHC sensor, hCD73-His 2-fold from 30 nM, 7 points
Procedure: (§1) The affinity of anti-CD73 mAbs and bsAbs were determined by biolayer interferometry analysis (ForteBIO, USA). In this method, anti-CD73 antibodies were loaded at 5 μg/mL on AHC (Anti-Human IgG Fc Capture, ForteBIO, Cat. No. 18-5060) for signal reach to approximate 0.5 nm. Sensors then were exposed to his-tagged human CD73 (AcroBiosystems, Cat. No. CD3-H52H7)-containing solutions that 2-fold serial diluted from the top concentration 30 nM for total 7 points. Measurements were performed as follows: 1 minute baseline in kinetic buffer, 5 minutes association in hCD73-His-containing solutions, and 5 minutes dissociation into kinetic buffer. The kinetic parameters were calculated and produced by Octet Data Acquisition and Analysis Software.

[4] = target: T1, CD73, cell membrane-bound (expressed by …); experiment: cell-based or functional assay
[5] = target: T4, soluble CD73 secreted by MDA-MB-231 …; experiment: cell-based or functional assay
[6] = target: T5, mouse Fc tagged human CD137 protein (AcroBiosystems, Cat #41B-H5256) (human, UniProt Q07011 24-186); experiment: BLI (Octet), hCD73-His on HIS1K sensor, antibody 100 nM, then CD137-mFc 100 nM
T5 construct: extracellular domain; Bought protein; also called CD137 extracellular domain fused with mouse Fc tag recombinant protein; human CD137 antigen
Procedure: The binding activities of the AP601 was determined by ForteBIO® (Menlo Park, Calif.) biosensor analysis. In this method, the His tagged human CD73 protein (AcroBiosystems, Cat. No. CD3-H52H7) were loaded onto HIS1K (Anti-Penta-HIS) biosensor (Cat. No. 18-5120) at 5 μg/mL for 5 minutes. Sensors then were exposed to antibody samples at 100 nM for 5 minutes follow by associating with the mouse Fc tagged human CD137 protein (AcroBiosystems, Cat. No. 41B-H5256) at 100 nM for 5 minutes. The binding chart were produced by Octet Data Acquisition and Analysis Software.

[7] = target: T3, his-tagged human CD73 (AcroBiosystems, …); experiment: biolayer interferometry; antibody captured on AHC sensor, hCD73-His as analyte
Procedure: as §1

[8] = target: T5, mouse Fc tagged human CD137 protein …; experiment: BLI (Octet), biotinylated p95 peptide on SA sensor, antibody 100 nM, then CD137-mFc 100 nM
Procedure: The binding activities of anti-p95HER2-CD137 bispecific antibody was determined by ForteBIO® (Menlo Park, Calif.) biosensor analysis. In this method, the custom synthesis biotinylated Her2 p95 peptide (GenScript) was loaded onto SA (Streptavidin, ForteBIO, Cat #18-5019) biosensor at 50 μg/mL for 5 minutes. Sensors then were exposed to antibody samples at 100 nM for 5 minutes follow by associating with the mouse Fc tagged human CD137 protein (AcroBiosystems, Cat #41B-H5256) at 100 nM for 5 minutes. The binding chart were produced by Octet Data Acquisition and Analysis Software.

[9] = target: T2, CD73 (antigen of the CD73 ELISA); experiment: phage ELISA on coated CD73-flag-HIS; X-flag-HIS control bars not seen above the axis; remark: listed apart in the source

Row | Binder | binding result [1] | Kd [3] [nM] | IC50, inhibition of cell membrane-bound CD73 enzyme (AMP-Glo, MDA-MB-231 cells) [4] [nM] | IC50, inhibition of soluble CD73 enzyme (AMP-Glo, MDA-MB-231 cultured medium) [5] [nM] | fold improvement of binding affinity against parental #3-1-28 [7] [fold] | also measured
1 | CR3-16 (antibody, IgG1, V domains shown, also called anti-CD73 antibody clone 3-16) VH: QVQLVQSGAEVKKPGASVKVSCKASGYTFTDFYIHWVRQAPGQGLEWMGWINPYSGSTNYPQKFQGRVTMTRDTSISTAYMDLSSLTSDDTAVYLCVRGRWFDFDYWGQGTTVTVSS VL: QSALTQPPSVSGSPGQSITISCTGTSSDVGTYNFVSWYQQHPGKVPKLIIYDVSNRPSGVSIRFSGSKSGNTASLTISGLQAEDEADYYCSSFRSGSTYVFGTGTRVTVLG | binds |  |  |  |  | binding result [2]: binds
2 | anti-CD73 antibody clone 3-4 (antibody, V domains shown, also called CD73 #3-4; CR3-4) VH: not shown VL: QSALTQPASVSGSPGQSITISCTGTSSDVGSYNLVSWYQQHPGKAPKLMIYEGSKRPSGVSNRFSGSKSGNTASLTISGLQAEDEADYYCCSYAGSSGWDIGTGTKVTVLG | binds |  |  |  |  | binding result [2]: binds
3 | anti-CD73 antibody clone 3-1-28 (antibody, human IgG1, lambda, N297A, V domains shown, also called CD73 #3-1-28; parental #3-1-28) VH: QVQLVQSGAEVKKPGSSVKVSCKASGGTFSSYAISWVRQAPGQGLEWMGRIIPILGIANYAQKFQGRVTITADKSTSTAYMELSSLRSEDTAVYYCARDSPVHYYGSGSYYRDAFDIWGQGTMVTVSS VL: not shown |  | 1.04 | 0.49 | 1.48 |  | binding result [6]: no binding (tested: 100 nM)
4 | anti-CD73 #3-1-28-v2 (antibody, human IgG1, lambda, N297A, V domains shown, also called #1911-022; anti-CD73 #3-1-28 (S107D S109H)) VH: QVQLVQSGAEVKKPGSSVKVSCKASGGTFSSYAISWVRQAPGQGLEWMGRIIPILGIANYAQKFQGRVTITADKSTSTAYMELSSLRSEDTAVYYCARDSPVHYYGDGHYYRDAFDIWGQGTMVTVSS VL: not shown |  | 0.523 | 0.245 | 0.273 | ~2 | 
5 | anti-CD73 #3-1-28-v3 (antibody, human IgG1, lambda, N297A, V domains shown, also called #1911-030; anti-CD73 #3-1-28 (S107D S109T A114S)) VH: QVQLVQSGAEVKKPGSSVKVSCKASGGTFSSYAISWVRQAPGQGLEWMGRIIPILGIANYAQKFQGRVTITADKSTSTAYMELSSLRSEDTAVYYCARDSPVHYYGDGTYYRDSFDIWGQGTMVTVSS VL: not shown |  | 0.553 |  | 0.241 | ~2 | 
6 | anti-CD73 #3-1-28-v1 (antibody, human IgG1, lambda, N297A, V domains shown, engineered IgG1 constant region; also called #1919-003; anti-CD73 #3-1-28 (S51A Q54E)) VH: QVQLVQSGAEVKKPGSSVKVSCKASGGTFSSYAISWVRQAPGQGLEWMGRIIPILGIANYAQKFQGRVTITADKSTSTAYMELSSLRSEDTAVYYCARDSPVHYYGSGSYYRDAFDIWGQGTMVTVSS VL: QSVLTQPPSASGTPGQRVIISCSGSSSNIGSNSVYWYQQLPGTAPKLLIYANNERPSGVPGRFSGSKSGTSASLAISGLRSEDEADYYCAAWDDSLRGPVFGGGTKLTVLG |  | 0.344 | 0.213 | 0.187 | ~2 | 
7 | anti-p95HER2 antibody clone R4-11 (antibody, human IgG1, kappa, V domains shown, also called p95HER2 #R4-11; #R4-11 mAb) VH: QITLKESGPTLVKPTQTLTLTCTFSGFSLSTSGVGVGWIRQPPGKALEWLALIYWDDDKRYSPSLKSRLTITKDTSKNQVVLTMTNMDPVDTATYYCAHAHPFSGSYNFWGQGTLVTVSS VL: DIVMTQSPDSLAVSLGERATINCKSSQSVLFSSNNKDYLAWYQQRPGQPPKLLIHWASTREPGVPDRFSGSGSGTDFTLTISSLQAEDVAVYYCLQSYSNPPTFGQGTKVEIKR |  |  |  |  |  | binding result [8]: no binding (tested: 100 nM)
8 | CR3-1-37 (antibody, IgG1, V domains shown, also called anti-CD73 antibody clone 3-1-37) VH: QVQLVQSGAEVKRPGSSVKVSCKASGGTFSSYAISWVRQAPGQGLEWMGGIIPIFGTANYAQKFQGRVTITADESTSTAYMELSSLRSEDTAVYYCARGVSYYYGMHVWGQGTTVTVSS VL: SYVLTQPPSVSVTPGKTARIACGGNNLESKIVSWYQQKPGQAPVLVIFYDTDRPSGISERFSGSNSGNTATLTISRVEAGDEADYYCQVWDSNSDHVIFGGGTKLTVLG | binds |  |  |  |  | binding result [9]: binds
